Results: article PMC4614378, “A cancer-associated mutation inactivates a region of the high-mobility group protein HMG20b essential for cytokinesis” (Cell Cycle, 2014)
No end group written: not given here.

What was measured:
Assay in all cases: pull-down; 1 nmol biotinylated BRC5 peptide on Dynabeads M-280 Streptavidin, 100 pmol purified HMG20b fragment; 50mM Tris-HCl pH 7.4, 150mM NaCl, 1% NP-40, 5mM EDTA, 10mM NaF, 0.1% BSA; 30 minutes at room temperature; Coomassie staining
Conditions in all cases: both partners purified
[1] = molecular target: T1, full-length HMG20b with C-terminal 6xHis tag (human, UniProt Q9P0W2 1-317)
T1 construct: cloned in pET21a; also called His-HMG20b; source: E. coli BL21 (DE3), purified (Ni-NTA agarose)
T1 sequence (looked up): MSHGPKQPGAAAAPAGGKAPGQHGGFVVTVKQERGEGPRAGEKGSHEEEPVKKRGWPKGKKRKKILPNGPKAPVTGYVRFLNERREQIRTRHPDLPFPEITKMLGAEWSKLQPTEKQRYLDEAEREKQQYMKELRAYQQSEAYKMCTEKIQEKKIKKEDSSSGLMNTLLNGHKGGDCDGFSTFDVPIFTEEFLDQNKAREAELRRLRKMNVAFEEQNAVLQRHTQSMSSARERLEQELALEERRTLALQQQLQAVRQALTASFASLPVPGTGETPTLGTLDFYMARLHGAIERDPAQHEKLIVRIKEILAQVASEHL

[2] = molecular target: T2, HMG20b fragment aa113-317 with C-terminal 6xHis tag (human, UniProt Q9P0W2 113-317)
T2 construct: cloned in pET21a; source: E. coli BL21 (DE3), purified (Ni-NTA agarose)
T2 sequence (looked up): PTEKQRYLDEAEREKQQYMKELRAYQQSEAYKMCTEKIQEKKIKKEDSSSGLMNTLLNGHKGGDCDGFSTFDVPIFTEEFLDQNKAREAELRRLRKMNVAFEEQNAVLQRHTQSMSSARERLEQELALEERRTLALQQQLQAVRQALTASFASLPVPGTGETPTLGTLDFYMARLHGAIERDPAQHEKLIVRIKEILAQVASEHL

[3] = molecular target: T3, HMG20b fragment aa173-317 with C-terminal 6xHis tag (human, UniProt Q9P0W2 173-317)
T3 construct: cloned in pET21a; also called C-terminal fragment; source: E. coli BL21 (DE3), purified (Ni-NTA agarose)
T3 sequence (looked up): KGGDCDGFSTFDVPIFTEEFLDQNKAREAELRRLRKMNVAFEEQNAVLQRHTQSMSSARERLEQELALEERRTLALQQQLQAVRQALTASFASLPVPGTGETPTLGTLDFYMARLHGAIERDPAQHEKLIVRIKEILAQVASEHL

[4] = molecular target: T4, HMG20b fragment aa173-276 with C-terminal 6xHis tag (human, UniProt Q9P0W2 173-276)
T4 construct: cloned in pET21a; also called C-terminal Δ1; source: E. coli BL21 (DE3), purified (Ni-NTA agarose)
T4 sequence (looked up): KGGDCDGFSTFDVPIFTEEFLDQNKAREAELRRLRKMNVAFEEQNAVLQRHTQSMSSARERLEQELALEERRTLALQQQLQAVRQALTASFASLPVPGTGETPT

- binding result [1]: binds
- binding result [2]: binds
- binding result [3]: binds
- binding result [4]: binds
B1: Biotinylated BRC5 peptide (BRCA2 amino acid residues 1661-1695) (peptide, UniProt P51587 1661-1695, looked up)
peptide: YSVIENSALAFYTSCSRKTSVSQTSLLEAKKWLRE
modifications: also: biotinylated (position not given here)
notes: BRCA2, human, BRC5 repeat motif, residues 1661-1695; also called Biotin-BRC5 peptide; BRC5 repeat; source: synthetic peptide (Cambridge Research Biochemicals)
